{"source": "the RNAGym collection of RNA variant scans (doi:10.1021/acssynbio.7b00057)", "parents": {"B1": {"name": "Pistol ribozyme (parent)", "chain": "GGGUCGUUGUUCCAUAAUCGCGUGGAUAUGGCACGCAAGUUUCUACCGGGCACCGUAAAUGUCCGACUGGAGCCGUUCGGGCGGCUAUAAACAGACCUCAGGCCCGAAGCGUGGCGGCACCUGCCGCCGGUGGUAAAAAAGAUCGGAAGAGCACACGUCU"}}, "data": [{"variants_of": "B1", "assay": "aptazyme ON/OFF ratio, guanine; higher = stronger switching; co-transcriptional cleavage with and without guanine", "values": [{"variant": "GGGUCGGCGAGAAAUAAUCGCGUGGAUAUGGCACGCAAGUUUCUACCGGGCACCGUAAAUGUCCGACUGGAGCCGUUCGGGCGGCUAUAAACAGACCUCAGGCCCGAAGCGUGGCGGCACCUGCCGCCGGUGGUAAAAAAGAUCGGAAGAGCACACGUCU", "aptazyme ON/OFF ratio": 1.08}, {"variant": "GGGUCGGCGAGAGAUAAUCGCGUGGAUAUGGCACGCAAGUUUCUACCGGGCACCGUAAAUGUCCGACUGGAGCCGUUCGGGCGGCUAUAAACAGACCUCAGGCCCGAAGCGUGGCGGCACCUGCCGCCGGUGGUAAAAAAGAUCGGAAGAGCACACGUCU", "aptazyme ON/OFF ratio": 1.13}, {"variant": "GGGUCGGCGAGAUAUAAUCGCGUGGAUAUGGCACGCAAGUUUCUACCGGGCACCGUAAAUGUCCGACUGGAGCCGUUCGGGCGGCUAUAAACAGACCUCAGGCCCGAAGCGUGGCGGCACCUGCCGCCGGUGGUAAAAAAGAUCGGAAGAGCACACGUCU", "aptazyme ON/OFF ratio": 1.19}, {"variant": "GGGUCGGCGAGCUAUAAUCGCGUGGAUAUGGCACGCAAGUUUCUACCGGGCACCGUAAAUGUCCGACUGGAGCCGUUCGGGCGGCUAUAAACAGACCUCAGGCCCGAAGCGUGGCGGCACCUGCCGCCGGUGGUAAAAAAGAUCGGAAGAGCACACGUCU", "aptazyme ON/OFF ratio": 1.23}, {"variant": "GGGUCGGCGAGCGAUAAUCGCGUGGAUAUGGCACGCAAGUUUCUACCGGGCACCGUAAAUGUCCGACUGGAGCCGUUCGGGCGGCUAUAAACAGACCUCAGGCCCGAAGCGUGGCGGCACCUGCCGCCGGUGGUAAAAAAGAUCGGAAGAGCACACGUCU", "aptazyme ON/OFF ratio": 1.23}, {"variant": "GGGUCGGCGAGCAAUAAUCGCGUGGAUAUGGCACGCAAGUUUCUACCGGGCACCGUAAAUGUCCGACUGGAGCCGUUCGGGCGGCUAUAAACAGACCUCAGGCCCGAAGCGUGGCGGCACCUGCCGCCGGUGGUAAAAAAGAUCGGAAGAGCACACGUCU", "aptazyme ON/OFF ratio": 1.22}, {"variant": "GGGUCGGCGCUAAAUAAUCGCGUGGAUAUGGCACGCAAGUUUCUACCGGGCACCGUAAAUGUCCGACUGGAGCCGUUCGGGCGGCUAUAAACAGACCUCAGGCCCGAAGCGUGGCGGCACCUGCCGCCGGUGGUAAAAAAGAUCGGAAGAGCACACGUCU", "aptazyme ON/OFF ratio": 1.19}, {"variant": "GGGUCGGCGAGGGAUAAUCGCGUGGAUAUGGCACGCAAGUUUCUACCGGGCACCGUAAAUGUCCGACUGGAGCCGUUCGGGCGGCUAUAAACAGACCUCAGGCCCGAAGCGUGGCGGCACCUGCCGCCGGUGGUAAAAAAGAUCGGAAGAGCACACGUCU", "aptazyme ON/OFF ratio": 1.3}, {"variant": "GGGUCGGCGAGGUAUAAUCGCGUGGAUAUGGCACGCAAGUUUCUACCGGGCACCGUAAAUGUCCGACUGGAGCCGUUCGGGCGGCUAUAAACAGACCUCAGGCCCGAAGCGUGGCGGCACCUGCCGCCGGUGGUAAAAAAGAUCGGAAGAGCACACGUCU", "aptazyme ON/OFF ratio": 1.25}, {"variant": "GGGUCGGCGAGGAAUAAUCGCGUGGAUAUGGCACGCAAGUUUCUACCGGGCACCGUAAAUGUCCGACUGGAGCCGUUCGGGCGGCUAUAAACAGACCUCAGGCCCGAAGCGUGGCGGCACCUGCCGCCGGUGGUAAAAAAGAUCGGAAGAGCACACGUCU", "aptazyme ON/OFF ratio": 1.22}, {"variant": "GGGUCGGCGCUCCAUAAUCGCGUGGAUAUGGCACGCAAGUUUCUACCGGGCACCGUAAAUGUCCGACUGGAGCCGUUCGGGCGGCUAUAAACAGACCUCAGGCCCGAAGCGUGGCGGCACCUGCCGCCGGUGGUAAAAAAGAUCGGAAGAGCACACGUCU", "aptazyme ON/OFF ratio": 2.63}, {"variant": "GGGUCGGCGAGGCAUAAUCGCGUGGAUAUGGCACGCAAGUUUCUACCGGGCACCGUAAAUGUCCGACUGGAGCCGUUCGGGCGGCUAUAAACAGACCUCAGGCCCGAAGCGUGGCGGCACCUGCCGCCGGUGGUAAAAAAGAUCGGAAGAGCACACGUCU", "aptazyme ON/OFF ratio": 1.19}, {"variant": "GGGUCGGCGAGUCAUAAUCGCGUGGAUAUGGCACGCAAGUUUCUACCGGGCACCGUAAAUGUCCGACUGGAGCCGUUCGGGCGGCUAUAAACAGACCUCAGGCCCGAAGCGUGGCGGCACCUGCCGCCGGUGGUAAAAAAGAUCGGAAGAGCACACGUCU", "aptazyme ON/OFF ratio": 1.22}, {"variant": "GGGUCGGCGAGACAUAAUCGCGUGGAUAUGGCACGCAAGUUUCUACCGGGCACCGUAAAUGUCCGACUGGAGCCGUUCGGGCGGCUAUAAACAGACCUCAGGCCCGAAGCGUGGCGGCACCUGCCGCCGGUGGUAAAAAAGAUCGGAAGAGCACACGUCU", "aptazyme ON/OFF ratio": 1.1}, {"variant": "GGGUCGGCGAGUGAUAAUCGCGUGGAUAUGGCACGCAAGUUUCUACCGGGCACCGUAAAUGUCCGACUGGAGCCGUUCGGGCGGCUAUAAACAGACCUCAGGCCCGAAGCGUGGCGGCACCUGCCGCCGGUGGUAAAAAAGAUCGGAAGAGCACACGUCU", "aptazyme ON/OFF ratio": 1.16}, {"variant": "GGGUCGGCGAGUAAUAAUCGCGUGGAUAUGGCACGCAAGUUUCUACCGGGCACCGUAAAUGUCCGACUGGAGCCGUUCGGGCGGCUAUAAACAGACCUCAGGCCCGAAGCGUGGCGGCACCUGCCGCCGGUGGUAAAAAAGAUCGGAAGAGCACACGUCU", "aptazyme ON/OFF ratio": 1.22}, {"variant": "GGGUCGGCGAGUUAUAAUCGCGUGGAUAUGGCACGCAAGUUUCUACCGGGCACCGUAAAUGUCCGACUGGAGCCGUUCGGGCGGCUAUAAACAGACCUCAGGCCCGAAGCGUGGCGGCACCUGCCGCCGGUGGUAAAAAAGAUCGGAAGAGCACACGUCU", "aptazyme ON/OFF ratio": 1.16}, {"variant": "GGGUCGGCGCUACAUAAUCGCGUGGAUAUGGCACGCAAGUUUCUACCGGGCACCGUAAAUGUCCGACUGGAGCCGUUCGGGCGGCUAUAAACAGACCUCAGGCCCGAAGCGUGGCGGCACCUGCCGCCGGUGGUAAAAAAGAUCGGAAGAGCACACGUCU", "aptazyme ON/OFF ratio": 1.22}]}]}
